Reference: publication doi:10.1101/2022.12.06.519310

Target: WDR5_(WD40), as used in the ITC (human)
Assay: ITC

Kd: 20.2 µM
Binder: ARTKQTARKSTGGKA (modifications not checked) [unmodified H3 tail peptide of the ITC (H3K4unmodQ5unmod)]
